Starred links: 1 amine or outer side, 2 acyl side, 3 side chain; linkers in the order of their positions; H or OH if unused. Positions of bridges follow the written chain, without caps; N, C: chain ends. Non-standard residues stand in square brackets, D forms with d. Primed or numbered codes have the meaning given here. RdN(3) = (R)-4-(((allyloxy)carbonyl)(methyl)amino)-2-amino-2-methylbutanoic acid, stapling residue, C=CCOC(=O)N(C)CC[C@@](C)(N[*:1])C(=O)[*:2]; RdN″ = (R)-4-(((allyloxy)carbonyl)(methyl)amino)-2-amino-2-methylbutanoic acid (stapling residue), C=CCOC(=O)N(C)CC[C@@](C)(N[*:1])C(=O)[*:2]; PyrS(3) = (S)-1-((allyloxy)carbonyl)-3-aminopyrrolidine-3-carboxylic acid, stapling residue, C=CCOC(=O)N1CC[C@@](N[*:1])(C(=O)[*:2])C1; PyrS″ = (S)-1-((allyloxy)carbonyl)-3-aminopyrrolidine-3-carboxylic acid (stapling residue), C=CCOC(=O)N1CC[C@@](N[*:1])(C(=O)[*:2])C1; RdN = (R)-4-(((allyloxy)carbonyl)(methyl)amino)-2-amino-2-methylbutanoic acid, C=CCOC(=O)N(C)CC[C@@](C)(N[*:1])C(=O)[*:2]; PyrS = (S)-1-((allyloxy)carbonyl)-3-aminopyrrolidine-3-carboxylic acid, C=CCOC(=O)N1CC[C@@](N[*:1])(C(=O)[*:2])C1; Phe(3,4-F2) = N[C@@H](Cc1ccc(F)c(F)c1)C(=O)O; S7 = C[C@@](CCCCCC=[*:3])(N[*:1])C(=O)[*:2]; Phe(3-F) = N[C@@H](Cc1cccc(F)c1)C(=O)O; d(αMeF) = C[C@@](N)(Cc1ccccc1)C(=O)O; 2Pal = N[C@@H](Cc1ccccn1)C(=O)O; R8 = C=CCCCCCC[C@@](C)(N)C(=O)O; Cha = N[C@@H](CC1CCCCC1)C(=O)O; hLeu = CC(C)CC[C@H](N)C(=O)O; Nle = CCCC[C@H](N)C(=O)O
T1: full-length beta-Catenin (Uniprot ID P35222) (Homo sapiens (Human), UniProt P35222 2-781)
T1 construct: Used full-length in both the FP and the AlphaScreen assay; also called B-Catenin; bCat
T1 sequence: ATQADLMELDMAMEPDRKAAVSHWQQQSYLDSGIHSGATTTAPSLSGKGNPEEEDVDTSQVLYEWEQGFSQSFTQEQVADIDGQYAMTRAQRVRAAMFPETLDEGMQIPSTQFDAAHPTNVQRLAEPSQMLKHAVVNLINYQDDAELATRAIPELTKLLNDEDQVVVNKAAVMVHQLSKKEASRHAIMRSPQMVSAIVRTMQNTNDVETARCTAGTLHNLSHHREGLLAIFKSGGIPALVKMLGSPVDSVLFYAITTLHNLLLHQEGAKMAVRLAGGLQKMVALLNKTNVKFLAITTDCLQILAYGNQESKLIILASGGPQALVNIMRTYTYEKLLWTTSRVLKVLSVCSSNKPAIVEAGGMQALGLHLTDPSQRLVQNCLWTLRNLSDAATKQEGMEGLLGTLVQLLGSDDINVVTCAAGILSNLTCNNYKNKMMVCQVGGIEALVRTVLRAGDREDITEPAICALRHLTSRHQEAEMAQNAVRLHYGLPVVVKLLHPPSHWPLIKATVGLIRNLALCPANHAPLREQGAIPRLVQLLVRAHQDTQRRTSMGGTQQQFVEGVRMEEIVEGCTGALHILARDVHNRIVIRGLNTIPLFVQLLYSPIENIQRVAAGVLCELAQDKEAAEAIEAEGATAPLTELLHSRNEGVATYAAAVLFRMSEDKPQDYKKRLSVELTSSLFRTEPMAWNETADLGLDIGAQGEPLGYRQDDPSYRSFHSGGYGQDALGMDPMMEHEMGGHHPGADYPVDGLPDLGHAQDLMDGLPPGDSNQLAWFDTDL

B1: I-72 (peptide)
peptide: Ac-ADI[RdN]D[Cha]AAFQ[S7]FWH-NH2
modifications: staple 4-11; not fully specified; printed as Ac-Ala-Asp-Ile-RdN-Asp-Cha-Ala-Ala-Phe-Gln-S7-Phe-Trp-His-NH2
notes: Stapled peptide; also called Ac-Ala-Asp-Ile-RdN-Asp-Cha-Ala-Ala-Phe-Gln-S7-Phe-Trp-His-NH2
B2: I-69 (peptide)
peptide: Ac-ADI[RdN″]D[Nle]AAFQ[S7]FWH-NH2
modifications: staple 4-11
notes: Stapled peptide; also called Ac-Ala-Asp-Ile-RdN-Asp-nLeu-Ala-Ala-Phe-Gln-S7-Phe-Trp-His-NH2
B3: I-80 (peptide)
peptide: Ac-FDA[R8]DDAAFV[PyrS][2Pal]WQ-NH2
modifications: staple 4-11
notes: Stapled peptide; also called Ac-Phe-Asp-Ala-R8-Asp-Asp-Ala-Ala-Phe-Val-PyrS-2PyrA-Trp-Gln-NH2
B4: I-46 (peptide)
peptide: FDAXDDAAFVXFWQ
modifications: not fully specified; N-terminal Ac; C-terminal NH2; RgN at 4 and S7 at 11, stapled
notes: Stapled peptide; also called Ac-Phe-Asp-Ala-RgN-Asp-Asp-Ala-Ala-Phe-Val-S7-Phe-Trp-Gln-NH2
B5: I-62 (peptide)
peptide: Ac-FDA[R8]DDAAFV[PyrS″]YWQ-NH2
modifications: staple 4-11; not fully specified; printed as Ac-Phe-Asp-Ala-R8-Asp-Asp-Ala-Ala-Phe-Val-PyrS-Tyr-Trp-Gln-NH2
notes: Stapled peptide; also called Ac-Phe-Asp-Ala-R8-Asp-Asp-Ala-Ala-Phe-Val-PyrS-Tyr-Trp-Gln-NH2
B6: I-57 (peptide)
peptide: Ac-FDA[R8]D[d(αMeF)]AAFV[PyrS″]FWQ-NH2
modifications: staple 4-11; not fully specified
notes: Stapled peptide; also called Ac-Phe-Asp-Ala-R8-Asp-aMeDF-Ala-Ala-Phe-Val-PyrS-Phe-Trp-Gln-NH2
B7: I-59 (peptide)
peptide: Ac-FDA[R8]DQAAFV[PyrS″]FWQ-NH2
modifications: staple 4-11; not fully specified; printed as Ac-Phe-Asp-Ala-R8-Asp-Gln-Ala-Ala-Phe-Val-PyrS-Phe-Trp-Gln-NH2
notes: Stapled peptide; also called Ac-Phe-Asp-Ala-R8-Asp-Gln-Ala-Ala-Phe-Val-PyrS-Phe-Trp-Gln-NH2
B8: I-63 (peptide)
peptide: Ac-FDA[R8]DDAAFV[PyrS]YWQ-NH2
modifications: staple 4-11; not fully specified; printed as Ac-Phe-Asp-Ala-R8-Asp-Asp-Ala-Ala-Phe-Val-PyrS-Tyr-Trp-Gln-NH2
notes: as for B5
B9: I-56 (peptide)
peptide: Ac-FDA[R8]D[d(αMeF)]AAFV[PyrS″]FWQ-NH2
modifications: staple 4-11
notes: as for B6
B10: I-58 (peptide)
peptide: Ac-FDA[R8]DQAAFV[PyrS]FWQ-NH2
modifications: staple 4-11; not fully specified; printed as Ac-Phe-Asp-Ala-R8-Asp-Gln-Ala-Ala-Phe-Val-PyrS-Phe-Trp-Gln-NH2
notes: as for B7
B11: I-60 (peptide)
peptide: Ac-FDA[R8]DDAAFV[PyrS][Cha]WQ-NH2
modifications: staple 4-11
notes: Stapled peptide; also called Ac-Phe-Asp-Ala-R8-Asp-Asp-Ala-Ala-Phe-Val-PyrS-Cha-Trp-Gln-NH2
B12: I-74 (peptide)
peptide: Ac-FDA[R8]DDAA[Cha]V[PyrS″]FWQ-NH2
modifications: staple 4-11; not fully specified; printed as Ac-Phe-Asp-Ala-R8-Asp-Asp-Ala-Ala-Cha-Val-PyrS-Phe-Trp-Gln-NH2
notes: Stapled peptide; also called Ac-Phe-Asp-Ala-R8-Asp-Asp-Ala-Ala-Cha-Val-PyrS-Phe-Trp-Gln-NH2
B13: I-75 (peptide)
peptide: Ac-FDA[R8]DDAA[Cha]V[PyrS″]FWQ-NH2
modifications: staple 4-11; not fully specified; printed as Ac-Phe-Asp-Ala-R8-Asp-Asp-Ala-Ala-Cha-Val-PyrS-Phe-Trp-Gln-NH2
notes: as for B12
B14: I-48 (peptide)
peptide: FDXADDAAFXAFWQ
modifications: not fully specified; N-terminal Ac; C-terminal NH2; R8 at 3 and S5 at 10, stapled
notes: Stapled peptide; also called Ac-Phe-Asp-R8-Ala-Asp-Asp-Ala-Ala-Phe-S5-Ala-Phe-Trp-Gln-NH2
B15: I-49 (peptide)
peptide: Ac-FD[RdN(3)]ADDAAF[S7]AFWQ-NH2
modifications: staple 3-10; also: earlier-eluting HPLC isomer, E/Z not assigned
notes: Stapled peptide; also called Ac-Phe-Asp-RdN-Ala-Asp-Asp-Ala-Ala-Phe-S7-Ala-Phe-Trp-Gln-NH2
B16: I-76 (peptide)
peptide: Ac-FDA[R8]DDAA[Nle]V[PyrS(3)]FWQ-NH2
modifications: staple 4-11
notes: Stapled peptide; also called Ac-Phe-Asp-Ala-R8-Asp-Asp-Ala-Ala-nLeu-Val-PyrS-Phe-Trp-Gln-NH2
B17: I-73 (peptide)
peptide: Ac-ADI[RdN(3)]D[Cha]AAFQ[S7]FWH-NH2
modifications: staple 4-11; not fully specified; printed as Ac-Ala-Asp-Ile-RdN-Asp-Cha-Ala-Ala-Phe-Gln-S7-Phe-Trp-His-NH2
notes: as for B1
B18: I-77 (peptide)
peptide: Ac-FDA[R8]DDAA[Phe(3-F)]V[PyrS]FWQ-NH2
modifications: staple 4-11
notes: Stapled peptide; also called Ac-Phe-Asp-Ala-R8-Asp-Asp-Ala-Ala-3FF-Val-PyrS-Phe-Trp-Gln-NH2
B19: I-71 (peptide)
peptide: Ac-ADI[RdN″]D[hLeu]AAFQ[S7]FWH-NH2
modifications: staple 4-11
notes: Stapled peptide; also called Ac-Ala-Asp-Ile-RdN-Asp-hLeu-Ala-Ala-Phe-Gln-S7-Phe-Trp-His-NH2
B20: I-79 (peptide)
peptide: Ac-FDA[R8]DDAA[Phe(3,4-F2)]V[PyrS]FWQ-NH2
modifications: staple 4-11
notes: Stapled peptide; also called Ac-Phe-Asp-Ala-R8-Asp-Asp-Ala-Ala-34FF-Val-PyrS-Phe-Trp-Gln-NH2

The binders below were run against T1, full-length beta-Catenin (Uniprot ID …) (assay: AlphaScreen competition; full-length beta-catenin, biotin-TCF4(10-53) probe).
Procedure: Equal volume of the titrated peptide was added to the plate and incubated for 15 minutes at 20° C. Then 4 uL of donor and 4 uL acceptor beads at 10 ug/mL were added to the plate, for a 16 uL reaction pool and protected from light for 60 minutes at 20° C. prior to read. Reads were performed on a CLARIOstar plate reader (BMG Labtech) in duplicate, and data were fitted to a 1:1 binding model with hill slope using an in-house script. All provided concentrations are final concentrations.

| Binder | EC50 [µM] |
| --- | --- |
| B1 | ≥ 10 |
| B2 | 9.1 |
| B3 | ≥ 10 |
| B4 | ≥ 10 |
| B5 | ≥ 10 |
| B6 | ≥ 10 |
| B7 | 9.88 |
| B8 | ≥ 10 |
| B9 | ≥ 10 |
| B10 | ≥ 10 |
| B11 | ≥ 10 |
| B12 | ≥ 10 |
| B13 | ≥ 10 |
| B14 | ≥ 10 |
| B15 | ≥ 10 |
| B16 | ≥ 10 |
| B17 | ≥ 10 |
| B18 | ≥ 10 |
| B19 | ≥ 10 |
| B20 | 3.97 |
